B1: Hammerhead Ribozyme (parent)
chain: ACCGGAUGUGCUUUCCGGUCUGAUGAGUCCGUGAGGACGAAACAG

Variants of: B1
Assay: self-cleavage, relative activity (ratio to wild type); higher = more cleavage; co-transcriptional
AGCGGAUGUGGUUUCCGGUCUGAUGAGUCCGUGAGGACGAAACAG gave a self-cleavage of 0.402.
Work on ACCGGAUGUGCUUUCCGCUCUGAAGAGUCCGUGAGGACGAAACAG yielded a self-cleavage of 0.617.
In the case of AUCGGAUUUGCUUUCCGGUCUGAUGAGUCCGUGAGGACGAAACAG, the self-cleavage is reported as 0.948.
ACCGGAUGUGCUUUCCGGUGUGAUGAGUCCGUGAGAACGAAACAG gave a self-cleavage of 0.31.
ACCGGAUGUGCUUUACGGUCAGAUGAGUCCGUGAGGACGAAACAG showed a self-cleavage of 0.415.
ACCGCAUGUGCUUUCCGGUCUGAUGAGUCCGUGAGGACGAAUCAG showed a self-cleavage of 0.328.
Work on ACUGGAUGUGGUUUCCGGUCUGAUGAGUCCGUGAGGACGAAACAG yielded a self-cleavage of 1.25.
Work on ACCGGAUAUGCUUGCCGGUCUGAUGAGUCCGUGAGGACGAAACAG yielded a self-cleavage of 0.988.
With ACCGGAUGUGUUUUCCGGUCUGAUGAGUCCGUGAGGACGAAACCG the self-cleavage was 0.474.
Variant ACCCGAUGUGCUUUCCGGUCUGAUAAGUCCGUGAGGACGAAACAG has a self-cleavage of 0.307.
ACCGGAUGUGCUUUCCGGUCUGAUGAGUCCGUAAGGACGAAGCAG gave a self-cleavage of 0.256.
ACCGGAUGUGCUUUCCGGUCUGAUAAGGCCGUGAGGACGAAACAG showed a self-cleavage of 0.313.
ACCGGAUGUCCUUUCCGGUCUGAUGAGUCCGUGAGGACGAAACCG gave a self-cleavage of 0.61.
UCCGGAUGUGCUUUCCGGUCUGAUGAGUCCGCGAGGACGAAACAG gave a self-cleavage of 0.436.
Variant ACCGGAUGUGCUUUCCUGUCUGGUGAGUCCGUGAGGACGAAACAG has a self-cleavage of 0.382.
Variant ACCGGAUGUGCUUCCCGGUCUGAUGAGUACGUGAGGACGAAACAG has a self-cleavage of 0.461.
In the case of ACCGGAUGUGCUUUCCGGUUUGAUGACUCCGUGAGGACGAAACAG, the self-cleavage is reported as 0.409.
For ACCGGAUGUGCUUUCCGGUCUGAUGAUUCCGUGAGGAGGAAACAG, the self-cleavage was 0.597.
For ACCGGAUGUGUUUUCAGGUCUGAUGAGUCCGUGAGGACGAAACAG, the self-cleavage was 0.886.
Work on ACCGGAGGUGCUUUCCGGUCUGACGAGUCCGUGAGGACGAAACAG yielded a self-cleavage of 1.23.
For ACCGGAUGUGCUUUCCGGUCUGAGGAGUACGUGAGGACGAAACAG, the self-cleavage was 0.447.
Work on GCCGGAGGUGCUUUCCGGUCUGAUGAGUCCGUGAGGACGAAACAG yielded a self-cleavage of 1.4.
Work on ACCGGAUUUGCUUUCCGGUCUGAUGAGUCCAUGAGGACGAAACAG yielded a self-cleavage of 1.23.
For ACGGGAUGUGCUUUCCGGUCUGAUGGGUCCGUGAGGACGAAACAG, the self-cleavage was 0.296.
With ACCGGAUGUGCUUUCCGGUCUGAUGAGUCCGUGAGGACGAAGUAG the self-cleavage was 0.326.
In the case of ACCGGAUGUGCUUUCCGGUCUGAUGAGUCCGUGAGGAUGAAAGAG, the self-cleavage is reported as 0.321.
ACCGAAUGUGCUUUCCGGUCUGAUGAGUCCGGGAGGACGAAACAG gave a self-cleavage of 0.533.
With AACGGAUGUGCUUUCCGAUCUGAUGAGUCCGUGAGGACGAAACAG the self-cleavage was 0.883.
With ACCGGAUGUGCUUUCCGGUCUGAUGAGUCCGUGAGGACUAAAAAG the self-cleavage was 0.312.
ACCGGAUGUGCUUUCCGGUCUGAUGAGUCCGUGAGGAUGAAACAC gave a self-cleavage of 0.529.
Work on ACCGGAUGUGCUUUCGGGUCUGAUGAGUCCGUAAGGACGAAACAG yielded a self-cleavage of 0.994.
Work on ACCGGAUGUGCUUUCCGGUCUGAUGAGUUCGUAAGGACGAAACAG yielded a self-cleavage of 0.959.
Work on ACCGGAUGUGCUUUCCGGUGUGGUGAGUCCGUGAGGACGAAACAG yielded a self-cleavage of 0.386.
For AACGGAUGUGCUCUCCGGUCUGAUGAGUCCGUGAGGACGAAACAG, the self-cleavage was 1.05.
Variant ACCGGAUGUGCUUUCCGGUCUGAUGAGUCUGUGAGGACGACACAG has a self-cleavage of 0.374.
ACCGGAUGUGCUUGGCGGUCUGAUGAGUCCGUGAGGACGAAACAG gave a self-cleavage of 0.771.
In the case of AUCGGAUGUGCUUUCCGGUCUGAUGAGUCCGUGAGGACGAAACCG, the self-cleavage is reported as 0.664.
In the case of AACGGAUGUACUUUCCGGUCUGAUGAGUCCGUGAGGACGAAACAG, the self-cleavage is reported as 0.934.
With ACCGGAUGUGCUUUCCGGUCUGAUGGGUCCGUGAGGACGAAACGG the self-cleavage was 0.654.
Variant ACCGGAUGUGCUUUUCGGUCUGAUGAGCCCGUGAGGACGAAACAG has a self-cleavage of 0.803.
ACCGGAUGUGCUUUCCGGUCUGAUGAGUCCGUGAGGACAAAACCG showed a self-cleavage of 0.39.
For ACCGGAUGUGCUCUCCGGUCUGAUGCGUCCGUGAGGACGAAACAG, the self-cleavage was 0.782.
Variant ACCGGAUGCGCUUUCCGGUCUGAUGAGUCCGUGACGACGAAACAG has a self-cleavage of 0.498.
With ACCGGAUGUGCUUACCCGUCUGAUGAGUCCGUGAGGACGAAACAG the self-cleavage was 0.375.
With ACCGGAUGAGCUUUCCGGUCUGAUGCGUCCGUGAGGACGAAACAG the self-cleavage was 0.532.
ACCGGCUGUGCUUUCCGGUCUGAUGACUCCGUGAGGACGAAACAG showed a self-cleavage of 0.478.
With ACCGGAUGUGCUGUCCGGUCUGAUGAGUCCGUGAGGACGAAACAA the self-cleavage was 0.719.
ACCGGAUGUGCUUUCCGGUCGGAUGAGUCCGUGAGGCCGAAACAG gave a self-cleavage of 0.427.
Work on ACCGGAUGUGCUUUCCAGUCUGAUGAGUCCGUGAGGACGAUACAG yielded a self-cleavage of 0.347.
Variant ACCGGAUGUGCUUUCAGGUCUGAUGAGUCCGUGAGUACGAAACAG has a self-cleavage of 0.434.
ACCGGAUGUGCUUUCCGGUCUUAUGAGUCCGUGAGGACGAAACAC showed a self-cleavage of 0.348.
For ACCGGAUGUGCUUUCCGGUCUGAUGAGUCCGUGAGGACGACAAAG, the self-cleavage was 0.361.
In the case of ACUGGAUGUGCUUUCCGGUCAGAUGAGUCCGUGAGGACGAAACAG, the self-cleavage is reported as 0.747.
In the case of ACCGGAUGUGCUUUCCGUUCUGAUGAGUCCGUGAGGACGAAACUG, the self-cleavage is reported as 0.368.
With ACCGGACGAGCUUUCCGGUCUGAUGAGUCCGUGAGGACGAAACAG the self-cleavage was 0.524.
Work on ACCGGAUGUGCUUUCCCGUCUGAUGAGUCCGAGAGGACGAAACAG yielded a self-cleavage of 0.497.
ACCGGAUGUACUUUCCGGUCUGAUGAGUCCGUGAGAACGAAACAG showed a self-cleavage of 0.742.

From the RNAGym collection of RNA variant scans (doi:10.7554/elife.80360)
